Experimental data taken from publication PMC7175128, “Rational Engineering of the Substrate Specificity of a Thermostable D-Hydantoinase (Dihydropyrimidinase)” (High-Throughput, 2020).

How the values were obtained:
[1] = test system: T1, O=C1CCNC(=O)N1; test: purified protein; type: biochemical, Geobacillus stearothermophilus; settings: 0.1 M MOPS pH 8.0, 0.5 mM MnSO4, temperature of kinetics not stated (activity assays at 60 °C)
T1 construct: recombinant from pET-Hyd in E. coli BL21(DE3); 52 kDa; heat-treated, ultrafiltered, desalted

[2] = test system: T2, O=C1NC(=O)C(Cc2c[nH]c3ccccc23)N1; test: purified protein; type: biochemical, Geobacillus stearothermophilus; settings: 0.1 M MOPS pH 8.0, 0.5 mM MnSO4, temperature of kinetics not stated (activity assays at 60 °C)
T2 construct: recombinant from pET-Hyd in E. coli BL21(DE3); 52 kDa; heat-treated, ultrafiltered, desalted

Substance	Km [1] [µM]	kcat [1] [s⁻¹]	kcat/Km [1] [M⁻¹ s⁻¹]	Km [2] [µM]	kcat [2] [s⁻¹]	kcat/Km [2] [M⁻¹ s⁻¹]
D-hydantoinase (dihydropyrimidinase) of G. stearothermophilus ATCC 31783 (Geobacillus stearothermophilus; I190A)	1120 ± 610	7.99 ± 0.9	7090 ± 3200	–	–	–
D-hydantoinase (dihydropyrimidinase) of G. stearothermophilus ATCC 31783 (Geobacillus stearothermophilus; W287A)	430 ± 130	2.76 ± 0.17	6530 ± 1830	1660 ± 850	6.83 ± 0.97	4130 ± 1630
D-hydantoinase (dihydropyrimidinase) of G. stearothermophilus ATCC 31783 (Geobacillus stearothermophilus; F159A/W287A)	5610 ± 2320	6.16 ± 1	1100 ± 300	4300 ± 400	12.5 ± 0.50	2900 ± 170
D-hydantoinase (dihydropyrimidinase) of G. stearothermophilus ATCC 31783 (Geobacillus stearothermophilus)	970 ± 220	11.2 ± 0.7	11300 ± 2200	–	–	–
D-hydantoinase (dihydropyrimidinase) of G. stearothermophilus ATCC 31783 (Geobacillus stearothermophilus; F159A)	2890 ± 1270	21.8 ± 2.6	7530 ± 2500	600 ± 580	4.16 ± 0.60	6890 ± 5830
